Values joined by “and” are separate entries in the source; they are usually repeats but may differ in a detail not shown here. Equal values may be shown once.

The target in experiment [1] is wild-type (WT) human apolipoprotein A-I, recombinant (human) (UniProt P02647). Nature of the experiment: native gel or EMSA. On the technique in general: Mobility shift assays separate free from complexed probe on a gel.
The target is the same in experiment [2]. The experiment can be described thus: AUC.
Experiment [3] has as its target S36A mutant human apolipoprotein A-I, recombinant (human). The experiment can be described thus: AUC.
The target is the same in experiment [4]. The experiment can be described thus: cross-linking.

Turning to “wild-type (WT) human apolipoprotein A-I, recombinant (from UniProt P02647 19-267) (natural protein)”, the stoichiometry N – broadly, a count of units in the complex or per binding partner – in experiment [1] is 2 and 4. In addition, in experiment [2], the Ka came to 8.56e+14 M⁻¹.
“S36A mutant human apolipoprotein A-I, recombinant (natural protein)”: in experiment [3], the Ka stood at 6.12e+14 M⁻¹. Besides, the stoichiometry N in experiment [3] was determined as 4; in experiment [4], 2.
